Results taken from US20100267626.

Target: T1, GST-Axin1 (a.a. 1-280), O35625
T1 chain: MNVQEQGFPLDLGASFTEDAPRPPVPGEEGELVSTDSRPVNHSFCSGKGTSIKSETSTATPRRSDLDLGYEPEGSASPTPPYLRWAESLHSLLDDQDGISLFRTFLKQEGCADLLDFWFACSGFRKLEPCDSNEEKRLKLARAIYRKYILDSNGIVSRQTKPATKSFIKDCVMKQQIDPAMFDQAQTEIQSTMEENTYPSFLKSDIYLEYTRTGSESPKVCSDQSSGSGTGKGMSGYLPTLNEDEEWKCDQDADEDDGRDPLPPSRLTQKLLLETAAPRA

B1: Recombinant TNKS2 (in vitro PARsylation assay) (protein)
chain: MSGRRCAGGGAACASAAAEAVEPAARELFEACRNGDVERVKRLVTPEKVNSRDTAGRKSTPLHFAAGFGRKDVVEYLLQNGANVQARDDGGLIPLHNACSFGHAEVVNLLLRHGADPNARDNWNYTPLHEAAIKGKIDVCIVLLQHGAEPTIRNTDGRTALDLADPSAKAVLTGEYKKDELLESARSGNEEKMMALLTPLNVNCHASDGRKSTPLHLAAGYNRVKIVQLLLQHGADVHAKDKGDLVPLHNACSYGHYEVTELLVKHGACVNAMDLWQFTPLHEAASKNRVEVCSLLLSYGADPTLLNCHNKSAIDLAPTPQLKERLAYEFKGHSLLQAAREADVTRIKKHLSLEMVNFKHPQTHETALHCAAASPYPKRKQICELLLRKGANINEKTKEFLTPLHVASEKAHNDVVEVVVKHEAKVNALDNLGQTSLHRAAYCGHLQTCRLLLSYGCDPNIISLQGFTALQMGNENVQQLLQEGISLGNSEADRQLLEAAKAGDVETVKKLCTVQSVNCRDIEGRQSTPLHFAAGYNRVSVVEYLLQHGADVHAKDKGGLVPLHNACSYGHYEVAELLVKHGAVVNVADLWKFTPLHEAAAKGKYEICKLLLQHGADPTKKNRDGNTPLDLVKDGDTDIQDLLRGDAALLDAAKKGCLARVKKLSSPDNVNCRDTQGRHSTPLHLAAGYNNLEVAEYLLQHGADVNAQDKGGLIPLHNAASYGHVDVAALLIKYNACVNATDKWAFTPLHEAAQKGRTQLCALLLAHGADPTLKNQEGQTPLDLVSADDVSALLTAAMPPSALPSCYKPQVLNGVRSPGATADALSSGPSSPSSLSAASSLDNLSGSFSELSSVVSSSGTEGASSLEKKEVPGVDFSITQFVRNLGLEHLMDIFEREQITLDVLVEMGHKELKEIGINAYGHRHKLIKGVERLISGQQGLNPYLTLNTSGSGTILIDLSPDDKEFQSVEEEMQSTVREHRDGGHAGGIFNRYNILKIQKVCNKKLWERYTHRRKEVSEENHNHANERMLFHGSPFVNAIIHKGFDERHAYIGGMFGAGIYFAENSSKSNQYVYGIGGGTGCPVHKDRSCYICHRQLLFCRVTLGKSFLQFSAMKMAHSPPGHHSVTGRPSVNGLALAEYVIYRGEQAYPEYLITYQIMRPEGMVDG
in vitro PARsylation with biotin-NAD+ (SDS-PAGE, streptavidin probe): TNKS2 was able to PARsylate an Axin1 fragment (a.a. 1-280) containing the TBD in vitro, which was completely inhibited by XAV939 treatment
